How the values were obtained:
[1] = biological target: Ang2-BD_(C1.70), yeast-displayed (human) (UniProt O15123); assay: flow cytometry on cells; Ang2-BD displayed on yeast, soluble Tie2-Fc in 20 mM Hepes pH 7.0, 150 mM NaCl, 1% BSA, 1 h at room temperature; detected with anti-human Fc FITC; binding MFI divided by expression MFI (c-Myc) and normalized to Ang2-BDWT
[2] = biological target: Ang2-BD_(C2.36), yeast-displayed (human) (UniProt O15123); assay: as above
[3] = biological target: T1, rhTie2 extracellular domain (human, UniProt Q02763 23-748); assay: SPR; ProteOn XPR36, rhTie2 extracellular domain amine-coupled to a GLC chip (2100 RU), Ang2-BD variants as analytes, 25°C, 20 mM Hepes pH 7.0, 150 mM NaCl, 1 mM CaCl2; steady state for Ang2-BDWT, two-state model for the variants; settings: both partners purified
T1 construct: receptor tyrosine kinase Tie2, recombinant human, extracellular domain; also called immobilized Tie2; recombinant soluble Tie2; source: bought: Sino Biological Inc
T1 sequence (Q02763 23-748): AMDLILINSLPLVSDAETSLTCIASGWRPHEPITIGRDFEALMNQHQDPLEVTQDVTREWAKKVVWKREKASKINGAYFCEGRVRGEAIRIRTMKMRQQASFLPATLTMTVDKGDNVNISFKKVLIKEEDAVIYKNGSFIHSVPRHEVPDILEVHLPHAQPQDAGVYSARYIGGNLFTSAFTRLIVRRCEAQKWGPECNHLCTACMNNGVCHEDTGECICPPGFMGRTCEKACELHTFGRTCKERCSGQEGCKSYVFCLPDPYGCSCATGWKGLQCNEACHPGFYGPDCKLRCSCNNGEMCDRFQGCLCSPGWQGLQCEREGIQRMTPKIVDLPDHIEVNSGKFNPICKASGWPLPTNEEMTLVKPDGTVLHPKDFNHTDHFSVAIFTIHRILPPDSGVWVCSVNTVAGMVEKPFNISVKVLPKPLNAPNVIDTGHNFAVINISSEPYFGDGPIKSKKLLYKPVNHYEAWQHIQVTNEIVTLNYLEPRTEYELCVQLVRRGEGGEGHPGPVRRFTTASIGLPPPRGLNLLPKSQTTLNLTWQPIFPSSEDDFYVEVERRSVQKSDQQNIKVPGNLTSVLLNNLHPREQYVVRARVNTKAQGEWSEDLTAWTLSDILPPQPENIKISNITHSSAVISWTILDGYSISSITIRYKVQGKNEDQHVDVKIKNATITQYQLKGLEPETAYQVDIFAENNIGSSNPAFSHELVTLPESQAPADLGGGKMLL

Sequence of Recombinant human Tie2 (Ala23-Lys745) Fc fusion, soluble Tie2-Fc (Q02763 23-745): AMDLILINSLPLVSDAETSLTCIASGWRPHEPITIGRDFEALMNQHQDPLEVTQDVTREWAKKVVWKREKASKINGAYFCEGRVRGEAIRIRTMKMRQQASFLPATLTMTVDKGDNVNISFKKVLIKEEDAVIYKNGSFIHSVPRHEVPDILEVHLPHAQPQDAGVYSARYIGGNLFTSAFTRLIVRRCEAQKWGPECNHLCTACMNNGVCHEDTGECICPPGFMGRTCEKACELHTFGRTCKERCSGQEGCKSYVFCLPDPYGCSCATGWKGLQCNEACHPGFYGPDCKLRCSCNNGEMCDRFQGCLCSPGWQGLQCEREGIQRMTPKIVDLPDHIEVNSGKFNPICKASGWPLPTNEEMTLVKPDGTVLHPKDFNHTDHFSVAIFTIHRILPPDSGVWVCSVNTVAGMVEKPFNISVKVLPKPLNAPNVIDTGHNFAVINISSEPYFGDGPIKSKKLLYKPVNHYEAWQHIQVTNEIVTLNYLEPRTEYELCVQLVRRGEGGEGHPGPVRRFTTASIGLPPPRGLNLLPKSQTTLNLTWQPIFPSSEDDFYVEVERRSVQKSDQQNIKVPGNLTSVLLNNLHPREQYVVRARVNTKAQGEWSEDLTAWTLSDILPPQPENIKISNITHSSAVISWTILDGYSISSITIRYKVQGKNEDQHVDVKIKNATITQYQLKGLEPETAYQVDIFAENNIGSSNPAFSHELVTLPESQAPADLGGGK

Row | fold increase in affinity relative to Ang2-BDWT [1] [fold] | fold increase in binding affinity as compared to Ang2-BDWT [2] [fold] | Kd [3] [nM] | Molecule
1 | 2.5 | 17 | – | Recombinant human Tie2 (Ala23-Lys745) Fc fusion, soluble Tie2-Fc (from UniProt Q02763 23-745)
2 | – | – | 434 | Ang2-BDWT, soluble (domain or fragment, human, UniProt O15123 281-496, looked up, N-linked carbohydrates removed with Endo Hf; also called wild-type Ang2-BD; parental Ang2-BD; source: Pichia pastoris GS115, purified from culture supernatant (HisTrap, Endo Hf treatment, Superdex 75); not shown: FLAG, N-terminal, kept) FRDCAEVFKSGHTTNGIYTLTFPNSTEEIKAYCDMEAGGGGWTIIQRREDGSVDFQRTWKEYKVGFGNPSGEYWLGNEFVSQLTNQQRYVLKIHLKDWEGNEAYSLYEHFYLSSEELNYRIHLKGLTGTAGKISSISQPGNDFSTKDGDNDKCICKCSQMLTGGWWFDACGPSNLNGMYYPQRQNTNKFNGIKWYYWKGSGYSLKATTMMIRPADF
